In publication doi:10.1101/609503:

Biological target: MepS (E. coli) (UniProt P0AFV4)
Experiment: MST

Chain of MepS (E. coli) (P0AFV4 27-188): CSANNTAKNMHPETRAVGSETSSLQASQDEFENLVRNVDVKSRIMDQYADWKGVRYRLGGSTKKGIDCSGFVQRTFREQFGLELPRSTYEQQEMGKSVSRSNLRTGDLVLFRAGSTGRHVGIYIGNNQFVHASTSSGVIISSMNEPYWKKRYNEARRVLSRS

In the case of “NlpI (soluble version, residues 19-294) (from UniProt P0AFB1 19-294) (natural protein)”, the Kd is reported as 145 nM.
